This data set concerns the target MycWT bHLH-LZ;Max bHLH-LZ (p21 isoform) (human?;, UniProt P01106;P61244 ;, |). The experiment in a line: EMSA. Background: A gel shift assay detects complexes by their altered migration in electrophoresis.

The text below walks through data of doi:10.1101/2020.05.04.076190.

B1: CACGTG E-box probe (dsDNA)
DNA 1: GCGCGGGCACGTGGGCCGGGG
DNA 2: CCCCGGCCCACGTGCCCGCGC
With B1, the binding result was “binds”.
